Measurements published in US20200399308A1, “COMPOUNDS AND METHODS FOR ELICITING ANTIMICROBIAL ACTIVITY” (Technion Research & Development Foundation Limited, priority 2018, published 2020).

Legend:
[1] = tested on: Klebsiella pneumoniae 1287; test: Serum survival assay; format: cell-based; details: mouse serum; 13 μM lactoferrin with 10 μM Compound B
Experimental: (§1) Serum survival assays were performed using fresh serum from normal mice or human serum from the Israel Blood Bank; samples were pooled and stored in aliquots at −80° C. until use. Time-dependent killing was determined in a final volume of 125 μL consisting of 112.5 μL of serum containing either a tested compound, egg white lysozyme (Amresco), lactoferrin (Vivinal lactoferrin FD; DMV International, Delhi, N.Y.), anti-murine C5/C5a antibody (25 μg/mL; ab194637; Abcam), or their combination, as specified. These solutions were supplemented with 12.5 μL of bacteria suspended in PBS at the desired concentration. After the specified time points of exposure, cultures were subjected to serial 10-fold dilutions in saline (0.85% NaCl) and plated for bacterial enumeration after incubation at 37° C. for an additional 24 hours. In heat-treated experiments, sera were incubated at 56° C. for 30 minutes for protein inactivation. Data were obtained from 3 independent experiments.

Escherichia coli 25922 = test: Serum survival assay; format: cell-based; details: mouse serum; 13 μM lactoferrin with 10 μM Compound B
Experimental: as §1

B1: lactoferrin: host defense antimicrobial protein (Vivinal lactoferrin FD) (protein, UniProt P24627 20-708, looked up)
Lactotransferrin: APRKNVRWCTISQPEWFKCRRWQWRMKKLGAPSITCVRRAFALECIRAIAEKKADAVTLDGGMVFEAGRDPYKLRPVAAEIYGTKESPQTHYYAVAVVKKGSNFQLDQLQGRKSCHTGLGRSAGWIIPMGILRPYLSWTESLEPLQGAVAKFFSASCVPCIDRQAYPNLCQLCKGEGENQCACSSREPYFGYSGAFKCLQDGAGDVAFVKETTVFENLPEKADRDQYELLCLNNSRAPVDAFKECHLAQVPSHAVVARSVDGKEDLIWKLLSKAQEKFGKNKSRSFQLFGSPPGQRDLLFKDSALGFLRIPSKVDSALYLGSRYLTTLKNLRETAEEVKARYTRVVWCAVGPEEQKKCQQWSQQSGQNVTCATASTTDDCIVLVLKGEADALNLDGGYIYTAGKCGLVPVLAENRKSSKHSSLDCVLRPTEGYLAVAVVKKANEGLTWNSLKDKKSCHTAVDRTAGWNIPMGLIVNQTGSCAFDEFFSQSCAPGADPKSRLCALCAGDDQGLDKCVPNSKEKYYGYTGAFRCLAEDVGDVAFVKNDTVWENTNGESTADWAKNLNREDFRLLCLDGTRKPVTEAQSCHLAVAPNHAVVSRSDRAAHVKQVLLHQQALFGKNGKNCPDKFCLFKSETKNLLFNDNTECLAKLGGRPTYEEYLGTEYVTAIANLKKCSTSPLLEACAFLTR
sensitization by Compound B to lactoferrin [1]: no significant sensitization
sensitization by Compound B to lactoferrin (Escherichia coli 25922): no significant sensitization
